Experimental data as given in patent publication US11660961B2, “Host cells and methods for producing isopentenol from mevalonate” (The Regents of the University of California, priority 2015, dated 2023).

Legend:
E. coli = settings: intracellular accumulation in pathway II strains
[1] = In vitro hydrolysis of IPP by purified Nudix hydrolase; format: biochemical; settings: purified enzyme with IPP; up to 16 hours
Method: All metabolites are analyzed by liquid chromatography mass spectrometry (LC-MS; Agilent Technologies 1200 Series HPLC system and Agilent Technologies 6210 time-of-flight mass spectrometer) on a ZIC-HILIC column (150 mm length, 2.1-mm internal diameter, and 3.5-μm particle size). Standard chemicals (IPP and IP) are purchased from Sigma-Aldrich (USA). Metabolites are eluted isocratically with a mobile phase composition of 64% (v/v) acetonitrile containing 50 mM ammonium acetate with a flow rate of 0.15 mL/min. IPP and IP from E. coli extracts or enzyme assay are quantified via […] calibration curves ranging from 781.25 nM to 200 μM.

[2] = In vitro hydrolysis of IP to isopentenol (purified enzyme or cell lysates); format: biochemical; settings: purified NudB or lysates of cells overexpressing the phosphatase
Method: To identify IP-hydrolyzing endogenous phosphatases, single gene knockout mutants of 36 phosphatases, of which substrates are mostly mono-phosphorylated metabolites, are retrieved from the Keio collection (Baba et al., 2006). 1 mL overnight cultures from each mutant are concentrated in 0.5 mL of 50 mM Tris-HCl (pH 8.0) buffer containing 1 mM DTT and ˜50 mg of glass beads (<100 μm, Sigma-Aldrich, USA). Cells are lysed by bead-beating for 2 min at 6.0 M/s (MP biomedicals Fast Prep, USA). After centrifugation of cell lysates at 20,000 g for 10 min, clear supernatant is used for assay reaction containing 0.5 mM isopentenyl monophosphate (IP). An equal volume of ethyl acetate is added to 100 μL of assay reaction after incubating overnight at 30° C., and isopentenol is extracted for 10 min by vigorous mixing.
Coding sequences of agp, aphA, and yqaB are amplified from BW25113 genome by PCR, and they are subsequently cloned to pBbE1a vector (Lee et al., 2011) for over-expression. Expression of these three genes are induced by addition of 0.5 mM IPTG to the cell cultures, and cell lysates of each sample are prepared with three biological replicates as described above for screening of the 36 mutants. 600 μL of assay reactions containing cell lysates, 1 mM DTT are prepared and the reaction is initiated by addition of 0.5 mM IP. […] Quantification of metabolites

E. coli BW25113 = experiment: Isopentenol production in E. coli; format: cell-based, Escherichia coli; settings: expressed in IPP-bypass pathway II in E. coli
Method: E. coli BW25113 harboring two plasmids is used for isopentenol production. Seed cultures of all production strains are prepared by growing single colonies in LB medium containing 100 μg/mL ampicillin and 30 μg/mL chloramphenicol overnight at 37° C. with shaking at 200 rpm. The seed cultures are diluted in EZ-Rich defined medium (Teknova, USA) containing 10 g/L glucose (1%, w/v), 100 μg/mL ampicillin and 30 μg/mL chloramphenicol. The E. coli cell cultures are incubated in rotary shakers (200 rpm) at 37° C., and 0.5 mM IPTG is added to induce protein expression at OD600 of 0.6-0.8. To provide different levels of aeration, identical volumes of the cell culture are split into two flasks for incubation at 30° C. with shaking at either 200 rpm or 30 rpm.
For isopentenol quantification, 250 μL of cell culture is combined with 250 μL of ethyl acetate containing 1-butanol (30 mg/L) as an internal standard. This mixture of ethyl acetate and cell culture is vigorously shaken for 15 min and subsequently centrifuged at 13,000 g for 2 min to separate ethyl acetate from the aqueous phase. 100 μL of the ethyl acetate layer was diluted 5-fold, and 1 μL is analyzed by Agilent GCMS equipped with Cyclosil-B column (Agilent, USA) or Thermo GCFID equipped with DB-WAX column (Agilent, USA) for quantitation of isopentenol.

[3] = In vitro enzyme kinetics of decarboxylases, ADP formation coupled to NADH oxidation; format: biochemical; settings: in vitro assay reactions using cell lysates

## C[C@@](O)(CCOP(=O)(O)O)CC(=O)O [MVAP, MVA monophosphate]
E. coli
  toxicity of accumulated metabolite to cells: without any significant toxicity

B1: NudB: phosphatase (Nudix hydrolase) from E. coli (protein, UniProt P0AFC0 1-150, looked up)
Dihydroneopterin triphosphate …: MKDKVYKRPVSILVVIYAQDTKRVLMLQRRDDPDFWQSVTGSVEEGETAPQAAMREVKEEVTIDVVAEQLTLIDCQRTVEFEIFSHLRHRYAPGVTRNTESWFCLALPHERQIVFTEHLAYKWLDAPAAAALTKSWSNRQAIEQFVINAA
[1]
  IPP hydrolysis product: produces only IP
[2]
  hydrolysis of IP to isopentenol: do not show the activity of hydrolyzing IP to Isopentenol

B2: aphA: E. coli-endogenous phosphatase found to hydrolyze IP to isopentenol (protein, UniProt P0AE22 26-237, looked up)
Class B acid phosphatase: SSPSPLNPGTNVARLAEQAPIHWVSVAQIENSLAGRPPMAVGFDIDDTVLFSSPGFWRGKKTFSPESEDYLKNPVFWEKMNNGWDEFSIPKEVARQLIDMHVRRGDAIFFVTGRSPTKTETVSKTLADNFHIPATNMNPVIFAGDKPGQNTKSQWLQDKNIRIFYGDSDNDITAARDVGARGIRILRASNSTYKPLPQAGAFGEEVIVNSEY
[2]
  hydrolysis of IP to isopentenol: significantly higher and faster hydrolysis activity on IP
E. coli BW25113
  effect on in vivo isopentenol production: does not significantly increase the isopentenol production

B3: S155E: PMDsc mutant, serine 155 mutated to glutamate (protein, UniProt P32377 1-396, looked up, variant S155E)
Diphosphomevalonate …: MTVYTASVTAPVNIATLKYWGKRDTKLNLPTNSSISVTLSQDDLRTLTSAATAPEFERDTLWLNGEPHSIDNERTQNCLRDLRQLRKEMESKDASLPTLSQWKLHIVSENNFPTAAGLASSAAGFAALVSAIAKLYQLPQSTSEISRIARKGSGEACRSLFGGYVAWEMGKAEDGHDSMAVQIADSSDWPQMKACVLVVSDIKKDVSSTQGMQLTVATSELFKERIEHVVPKRFEVMRKAIVEKDFATFAKETMMDSNSFHATCLDSFPPIFYMNDTSKRIISWCHTINQFYGETIVAYTFDAGPNAVLYYLAENESKLFAFIYKLFGSVPGWDKKFTTEQLEAFNHQFESSNFTARELDLELQKDVARVILTQVGSGPQETNESLIDAKTGLPKE
[3]
  product formation from MVAP: do not produce detectible amount of product

B4: S208E: PMDsc mutant, serine 208 mutated to glutamate (protein, UniProt P32377 1-396, looked up, variant S208E)
Diphosphomevalonate …: MTVYTASVTAPVNIATLKYWGKRDTKLNLPTNSSISVTLSQDDLRTLTSAATAPEFERDTLWLNGEPHSIDNERTQNCLRDLRQLRKEMESKDASLPTLSQWKLHIVSENNFPTAAGLASSAAGFAALVSAIAKLYQLPQSTSEISRIARKGSGSACRSLFGGYVAWEMGKAEDGHDSMAVQIADSSDWPQMKACVLVVSDIKKDVSETQGMQLTVATSELFKERIEHVVPKRFEVMRKAIVEKDFATFAKETMMDSNSFHATCLDSFPPIFYMNDTSKRIISWCHTINQFYGETIVAYTFDAGPNAVLYYLAENESKLFAFIYKLFGSVPGWDKKFTTEQLEAFNHQFESSNFTARELDLELQKDVARVILTQVGSGPQETNESLIDAKTGLPKE
[3]
  product formation from MVAP: do not produce detectible amount of product
